Measured values from the supplement of paper PMC9170038.

System: MS2 coat protein
Experiment: apparent KD of MS2 coat protein; higher = weaker reporter binding
Conditions: Eterna round: R107
Summary of the method: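 Values are apparent KD, taken as the median for each design of fits to normalised binding curves from individual clusters. The designed RNA switches were transcribed on-chip from Illumina sequencing clusters and exposed to SNAP-549-labelled MS2 coat protein at twofold increasing amounts from 0.7 or 1.5 nM to 3 µM. Titration used 100 mM Tris-HCl pH 7.5, 80 mM KCl and 4 mM MgCl2, without or with constant ligand.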

[1] = input ligand: theophylline 20 uM
[2] = input ligand: theophylline 2 mM
[3] = input ligand: tryptophan 2.4 mM

Row | Sequence | apparent KD of MS2 coat protein (input ligand: arginine 13.2 mM) | apparent KD of MS2 coat protein (input ligand: none) | apparent KD of MS2 coat protein [1] | apparent KD of MS2 coat protein [2] | apparent KD of MS2 coat protein [3]
1 | GGAUAGGACAGAAGGAGCGACAUGAGGAUCACCCAUGUCUACCACGUCGAAAGACGCUCAUGUCAGGUAGGUCGCUGUCCUAUCG [ArgXB 9 #StaticStem #MS2LeftOffAptamer] | 101 nM | 153 nM | 191 nM | 183 nM | 113 nM
2 | UGAUACCAGUCGGCCGCCACUACAUGAGGAUCACCCAUGUAUCCUCAACUGCUAGAUACUAGCAGUAGGACCGGGACUGGUAUCU | 164 nM | – | 408 nM | 459 nM | –
3 | UAUCCACAUGAGGAUCACCCAUGUAAGGAAGGAGCGGUGAAUGAACCAGGUAGGUCGCCUUGGUGAGGAUCAUCUAUGGAUUCGU [Exclusion - Arginine A (Freestyle 10)] | 28 nM | 36.8 nM | 65.9 nM | 43.5 nM | 41.8 nM
4 | GACCGAUUAUAGUGCGAUUGUCUUGUGGAAGGAGCGCAGAGGACUGCAGGUAGGUCGCCACAUGAGGAUCACCCAUGUCAGGAUU [Reinorlaan] | 39.8 nM | 46 nM | 45.1 nM | 64.8 nM | 40.5 nM
5 | GGAUAGAUAGGAGAUACCAGACACAUUAACAUGAGGAUCACCCAUGUGUCUGCACUAAGUGUCCCUUGGCAGCUCGGAGAUCUGA [Same State - Theophylline B] | 34.2 nM | 45.9 nM | 44.2 nM | 30.6 nM | 31.9 nM
6 | UGGGUACCGACGGCCGCCACUGAAUAUAGACAUGAGGAUCACCCAUGUAGAGAUCCUAGAAUAAACAGGACCGGGUCUGGUGCUA [Exclusion Tryptophane B GF5] | 92.4 nM | – | 239 nM | 293 nM | –
7 | AAUAAGAUGAGGAUCACCCAUCUAAAAGAUACCAGAGUGAUGAUCCUCCCUUGGCAGCUUAACGCUGAUUGAUUACAAUCAGCGA | 21.7 nM | 47.2 nM | 124 nM | 121 nM | 25.3 nM
8 | GGUUACUCUACGGCCGCCACUGUAAAGUAAAUAUUAAUGUACAUGACAUGAGGAUCACCCAUGUACAGGACCGGGUAGUGUAACC [Tryptophan B 14] | 45.5 nM | – | 56.5 nM | 46.5 nM | –
9 | ACACAUGAGGAUCACCCAUGUGCGCUGGAAGGAGCGCAGAAUCAUGCAGGUAGGUCGCCAGUGCCUUUUGAUAAAGGGAAAAGAA [Cezaquce] | 66.1 nM | 86.1 nM | 94.6 nM | 69.3 nM | 60.6 nM
10 | AAAAUAGAAGGAAGACAAAUAGAUACAGAAGGAGCGUAGGAAACUACAGGUAGGUCGCUGGAAAACAUGAGGAUCACCCAUGUAG [SSArg A #22 Slice of Pi Skeleton] | 31.5 nM | 40.6 nM | 54 nM | 46.9 nM | 42.6 nM
11 | GGGCCCGGGCGCGAGCCCGGGCCCAUUGAUACCAGUGAUAUAUGACGCCCUUGGCAGCGAAUCCUAACAUGAGGAUCACCCAUGU [5.H] | 22.8 nM | 54.7 nM | 58.9 nM | 81.6 nM | 37.1 nM
12 | CCAUUGAUGACGGCCGCCACUGUCUACAUGAGGAUCACCCAUGUAUAGCAGGGUGGACCUAUGGACAGGACCGGGUCACUUGUCC [Tryp B Ex t7] | 10.4 nM | – | 13.7 nM | 12.4 nM | –
13 | AGCUCGCAUCCUCUAGCGUCAAAGACGCCUCGAGGACCGGUACGGCCGCCACUCGAGAUGAGGAUCACCCAUCUCAAAGCGAGCA [TrypAX 14 #SwitchBubble #AlternativeMS2 #MS2Late #CuTurnoff] | 71.6 nM | – | 197 nM | 254 nM | 156 nM
14 | GCCAUCGGCGGAAGCCGAUGGUAUACGGAAGGAGCGCACGAAAGUGCAGGUAGGUCGCUGAACAUGAGGAUCACCCAUGUAAUAA [#28 Same State - Arginine A] | 17.6 nM | 18.8 nM | 36.4 nM | 24.1 nM | 20.3 nM
15 | AUAAAUGGGUUAAUUAGUUUUAGGUCCAGUCGAGGACCGGUACGGCCGCCACUCGUCCCAAGUUACAUGAGGAUCACCCAUGUUA [JR_ExcTryptoA_Sub014] | 33.8 nM | – | 52.5 nM | 91.9 nM | –
16 | GACGAUAUGAUACGUCAGCAAUCCUCGAAACGAGGACCGGUACGGCCGCCACUCGAGUGAUACACAUGAGGAUCACCCAUGUACC [Tryp A Ex t3] | 30.9 nM | – | 49.6 nM | 49.4 nM | –
17 | GUAUACAUGAGGAUCACCCAUGUGCCAGAAGGAGCGCUGGAAACGGCAGGUAGGUCGCUGGUAGGUCCUCUAUCUAGACGUUCGG [#17 Exclusion - Arginine A] | 52.6 nM | 97.5 nM | 188 nM | 188 nM | 60.3 nM
18 | CAGACUAGGGCGGCCGCCACUGUGGCUACGGUACAUGAGGAUCACCCAUGUUUGUGGUUGAUCUACAGGACCGGGCCCUGGCACG [Orbera] | 9.05 nM | 305 nM | 588 nM | 200 nM | 273 nM
19 | UAUACAUGAGGAUCACCCAUGUGCCAUGAUACCAGACAUGAAAAUGUCCCUUGGCAGCAUGGUGAUUGUAUAGCGGGAAACCCGA [Utechov] | 81.3 nM | – | 261 nM | – | 138 nM

Row | Sequence | apparent KD of MS2 coat protein (input ligand: arginine 13.2 mM) | apparent KD of MS2 coat protein (input ligand: none) | apparent KD of MS2 coat protein [1] | apparent KD of MS2 coat protein [2] | apparent KD of MS2 coat protein [3]
20 | AGGUGCAAAGCACCCUCUGGCCCUCGUGAAGGAGCGCUCGAAAGAGCAGGUAGGUCGCAUGAGGAUCACCCAUGUGAGCCAGAGA [Arg A Exc A v1] | 35.1 nM | 52.5 nM | 83.5 nM | 65.3 nM | 56.2 nM
21 | UGACAUGAGGAUCACCCAUGUAUAACUGAAGGAGCGUCCAUAAGGACAGGUAGGUCGCGGAAUGAACAGAGUGCACGACAUGUUU [Arg A SS t1] | 12.8 nM | 13.3 nM | 17.7 nM | 14.3 nM | 14.2 nM
22 | UCGGCAGUGAACGAUACCAGCGUCACGUGGCCGGUGGUCACAUGAGGAUCACCCAUGUAACGCCCUUGGCAGCGUGCGCGUACCG [Zaancebi] | 15.1 nM | – | 63.5 nM | – | 27.3 nM
23 | GGACUCGUCACGGCCGCCACUGCGGUGGUGUGACAUGAGGAUCACCCAUGUUGUCAUGCGGCCCUUAGGACCGGGUGUCGCUUCC [#1 Exclusion - Tryptophan B Attempt #24 (HarryS)] | 124 nM | – | 221 nM | 336 nM | –
24 | AAAAUAAACUCGGCCGCCACUCAACGGACCCUUUGGACAUGAGGAUCACCCAUGUAUUUUGGAAAGAGGACCGGGAGAAAUAAAA [Exclusion - Trytophan B] | 8.32 nM | 8.35 nM | 17.8 nM | 11.7 nM | 12.2 nM
25 | AGGACCAGGAUCCUCAUGUAACUGGUCCAACGAGGACCGGUACGGCCGCCACUCGAAUAAACAUGAGGAUCACCCAUGUAAUAAU [T''-M-T'-T-MS2] | 36.9 nM | 268 nM | 169 nM | 313 nM | 426 nM
26 | UUAAUCUAUGAAGAAAACUUUAUAGCAGAAGGAGCGUGAUAAAACACAGGUAGGUCGCUGAAGGGAACAUGAGGAUCACCCAUGU [AstrosSSArgA#19] | 23.7 nM | 22.7 nM | 36.7 nM | 31.1 nM | 26.5 nM
27 | UGGGAAGGAGGAAGGAGCGCCAUAAGGGUGACUGUCUGGGUACAUGAGGAUCACCCAUGUAGGCAGGUAGGUCGCCUCGCUCUCA [Bibienoned] | 10.3 nM | 10.1 nM | 11.9 nM | 10.4 nM | 10.4 nM
28 | AACAUGAGGAUCACCCAUGUUAAGUAUGAAGGAGCGUCGGAAACGACAGGUAGGUCGCAUACUUGGCCUUGUACUUCGUGUGUCU [#02 Exclusion - Arginine A] | 14.2 nM | 14.3 nM | 17.9 nM | 14.4 nM | 14.7 nM
29 | CGCGGUUGAGAUGGGCCUUUGAUAAGUCUGCGAGGACCGGUACGGCCGCCACUCGAGGACAUGAGGAUCACCCAUGUACUUCGCG [Atriera] | 51.1 nM | – | 81 nM | 57.7 nM | –
30 | CUGACAGACUCGGCCGCCACUGAUAGUAGGACAUGAGGAUCACCCAUGUAAACAAACCUCAUAGCCAGGACCGGGAGUCACGAAG [Same State Tryptophan B GF 21] | 31 nM | 45.6 nM | 57.1 nM | 51.3 nM | 24.9 nM
31 | AGUUACAUGAGGAUCACCCAUGUCCGGUUGCGAGGACCGGUACGGCCGCCACUCGGGUACAUCCCAGAAAAUACUGAAUGCCUGC [theeternabot_sameState_MS2_Trp_A_15] | 41.8 nM | – | 66.4 nM | 84.5 nM | –
32 | GUAUCGACAUGAGGAUCACCCAUGUCCGAAGGAGCGUUGGGAACAACAGGUAGGUCGCGGACAUAGAGCAUCCGGAAACGGAUGC [EAA NP+V+V2 #1] | 10.1 nM | 14 nM | 16.4 nM | 34.3 nM | 13.9 nM
33 | AAUAACGUGAGGAUCACCCACGUAAAAGAUACCAGAGUGAUGAUCCUCCCUUGGCAGCUUAACGCUGAUUGAUUACAAUCAGCGA | 49.5 nM | 58.7 nM | 123 nM | 213 nM | 49.6 nM
34 | AAUAAGCAGCUGCAUCAUGGGUGAGCAGAUACCAGCUAGGAAACUAGCCCUUGGCAGCUGCAACAUGAGGAUCACCCAUGUAAUA [(T)'-(M)'-(T1)-(T2)-(M1)-(M2)_Design5] | 47.1 nM | 42.7 nM | 108 nM | 46.3 nM | 34.7 nM
35 | ACAUGAGGAUCACCCAUGUGCCGUCUUGAUACCAGACGCGAAGUAGUCCCUUGGCAGCAAAUACGUGAGGGUCGCGCAUGUGUAA [wzxmullin] | 21.8 nM | – | 27.3 nM | – | 24.9 nM
36 | AUUAUCAUGGUCAUAUAUAUAUCUUCAGAUACCAGACUAUAUUAAGUCCCUUGGCAGCUGUUACAUGAGGAUCACCCAUGUUAUA [JR_ExcTheophyA_Sub014] | 53.9 nM | – | 76.1 nM | – | 102 nM
37 | AUCUUGUACCGUAAUACUUUACGUUGGGAUACCAGCAUGGACCCAUGCCCUUGGCAGCUUUACAUGAGGAUCACCCAUGUUGUAG [SSTheo A #28] | 26.3 nM | – | 42.2 nM | – | 39.9 nM
